This passage reports response results from paper PMC12583694, “RNF114 and RNF166 exemplify reader-writer E3 ligases that extend K11 polyubiquitin onto sites of MARUbylation” (The EMBO Journal, 2025).

The assay deals with ADPr-TAMRA (ADPrT). Put plainly: fluorescence polarisation. The note with it: read at the highest titration point, about 75 µM RNF114 (left graph); parent: est. 50; read off a plot. (In general: Fluorescence polarisation rises when a labelled molecule tumbles more slowly, as on binding a larger partner.)

Consider “RNF114 (wild type, full-length) (from UniProt Q9Y508) R198E”, for which the response is 13.

For the substance “RNF114 (wild type, full-length) (from UniProt Q9Y508) W181D; G182E”, the response came to 6.
